This note sets out measurements from patent publication US11278600B2, “Human alpha-galactosidase variants” (Codexis, Inc., priority 2014, dated 2022).

What all share (format): biochemical
Series [1] is described as follows: HTP-analysis of supernatants pretreated with acid (MUGal hydrolysis). The settings on record: activity of the variant/activity of Rd4BB (SEQ ID NO: 15); challenge at pH 3.7. The gist of the method:
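MUGal hydrolysis was tracked by fluorescence (Ex 355 nm, Em 448 nm) after a 30-180 min reaction at 37° C. in pH 4.8 McIlvaine/citrate buffer, stopped with 1 M sodium carbonate. Beforehand, yeast (INVSc1) culture supernatants carrying GLA variants were held 1-3 h at 37° C. in acidic McIlvaine buffer, pH 3.3-4.3.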

Series [2] can be described thus: HTP-analysis of yeast culture supernatants, no challenge (MUGal hydrolysis). The settings on record: activity of the variant/activity of Rd4BB (SEQ ID NO: 15). The gist of the method: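 Activity read as 4-methylumbelliferyl α-D-galactopyranoside hydrolysis: fluorescence (355/448 nm) after sodium carbonate stop, following 30-180 min at 37° C with 2 mM MUGal stock at pH 4.6–4.8. Enzyme source is unchallenged culture supernatant of INVSc1 yeast expressing GLA variants, grown 66-84 h at 30° C.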

The nature of series [3]: HTP-analysis of supernatants pretreated with base (MUGal hydrolysis). The settings on record: activity of the variant/activity of Rd4BB (SEQ ID NO: 15); challenge at pH 9.65. The gist of the method: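 GLA variants secreted from yeast INVSc1; culture supernatants pre-incubated with McIlvaine buffer pH 7.0–8.2 or 200 mM bicarbonate pH 9.1–9.7 at 37° C. for 1–18 h. Residual activity: MUGal (4 mM stock) hydrolysis at pH 4.3–4.8, 37° C., 30–180 min, carbonate quench; fluorescence Ex 355/Em 448 nm.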

B1: 482 (protein)
chain: LDNGLARTPTMGWLHWERFMCNLDCQEEPDSCISEKLFMEMAERMVSEGWKDAGYEYLCIDDCWMAPQRDSEGRLQADPQRFPHGIRQLANYVHSKGLKLGIYADVGNKTCAGFPGSFGYYDIDAQTFADWGVDLLKFDGCYCDSLENLADGYKHMSLALNRTGRSIVYSCEWPLYMWPFQKPNYTEIRQYCNHWRNFADIDDSWKSIKSILDWTSFNQERIVDVAGPGGWNDPDMLVIGNFGLSWNQQVTQMALWAIMAAPLFMSNDLRHISPQAKALLQDKDVIAINQDPLGKQGYQLRQGDNFEVWERPLSGLAWAVAMINRQEIGGPRSYTIAVASLGKGVACNPACFITQLLPVKRKLGFYEWTSRLRSHINPTGTVLLGLENTMQMSLKDLL
modifications: Synthetic Polypeptide sequence of Variant No. 482 of mature Human GLA
In the case of B1, the “Relative Activity of GLA Variants After Challenge at pH 3.7” value (“Relative Activity … at pH 3.7” for short) in series [1] was “+ (0.5 to 1.5 relative activity over Rd4BB (SEQ ID NO: 15))”. Also, the “Relative Activity of GLA Variants After No Challenge (NC)” value in series [2] is listed as “+ (0.5 to 1.5 relative activity over Rd4BB (SEQ ID NO: 15))”. In addition, in series [3], the “Relative Activity of GLA Variants After Challenge at pH 9.65” value (shortened to “Relative Activity … at pH 9.65”) is on record as “+ (0.5 to 1.5 relative activity over Rd4BB (SEQ ID NO: 15))”.

B2: 484 (protein)
chain: LDNGLARTPTMGWLHWERFMCNLDCQEEPDSCISEKLFMEMAERMVSEGWKDAGYEYLCIDDCWMAPQRDSEGRLQADPQRFPHGIRQLANYVHSKGLKLGIYADVGNKTCAGFPGSFGYYDIDAQTFADWGVDLLKFDGCYCDSLENLADGYKHMSLALNRTGRSIVYSCEWPLYMWPFQKPNYTEIRQYCNHWRNFADIDDSWKSIKSILDWTSFNQERIVDVAGPGGWNDPDMLVIGNFGLSWNQQVTQMALWAIMAAPLFMSNDLRHISPQAKALLQDKDVIAINQDPLGKQGYQLRQGDNFEVWERPLSGLAWAVAMINRQEIGGPRSYTIAVASLGKGVACNPACFITQLLPVKRKLGFYEWTSRLRSHINPTGTVLLQLENTMQVSLKDLL
modifications: Synthetic Polypeptide sequence of Variant No. 484 of mature Human GLA
Consider B2, for which the “Relative Activity … at pH 3.7” value in series [1] is reported as “+ (0.5 to 1.5 relative activity over Rd4BB (SEQ ID NO: 15))”. Besides, the “Relative Activity of GLA Variants After No Challenge (NC)” value in series [2] is listed as “+ (0.5 to 1.5 relative activity over Rd4BB (SEQ ID NO: 15))”. Besides, the “Relative Activity … at pH 9.65” value in series [3] is recorded as “+ (0.5 to 1.5 relative activity over Rd4BB (SEQ ID NO: 15))”.

B3: 488 (protein)
chain: LDNGLARTPTMGWLHWERFMCNLDCQEEPDSCISEKLFMEMAERMVSEGWKDAGYEYLCIDDCWMAPQRDSEGRLQADPQRFPHGIRQLANYVHSKGLKLGIYADVGNKTCAGFPGSFGYYDIDAQTFADWGVDLLKFDGCYCDSLENLADGYKHMSLALNRTGRSIVYSCEWPLYMWPFQKPNYTEIRQYCNHWRNFADIDDSWKSIKSILDWTSFNQERIVDVAGPGGWNDPDMLVIGNFGLSWNQQVTQMALWAIMAAPLFMSNDLRHISPQAKALLQDKDVIAINQDPLGKQGYQLRQGDNFEVWERPLSGLAWAVAMINRQEIGGPRSYTIAVASLGKGVACNPACFITQLLPVKRKLGFYEWTSRLRSHINPTGTVLLQLENNMQMSLKDLL
modifications: Synthetic Polypeptide sequence of Variant No. 488 of mature Human GLA
Take B3: the “Relative Activity … at pH 3.7” value in series [1] is “+ (0.5 to 1.5 relative activity over Rd4BB (SEQ ID NO: 15))”. The “Relative Activity of GLA Variants After No Challenge (NC)” value in series [2] is on record as “+ (0.5 to 1.5 relative activity over Rd4BB (SEQ ID NO: 15))”. For the same molecule, the “Relative Activity … at pH 9.65” value in series [3] was “+ (0.5 to 1.5 relative activity over Rd4BB (SEQ ID NO: 15))”.

B4: 485 (protein)
chain: LDNGLARTPTMGWLHWERFMCNLDCQEEPDSCISEKLFMEMAERMVSEGWKDAGYEYLCIDDCWMAPQRDSEGRLQADPQRFPHGIRQLANYVHSKGLKLGIYADVGNKTCAGFPGSFGYYDIDAQTFADWGVDLLKFDGCYCDSLENLADGYKHMSLALNRTGRSIVYSCEWPLYMWPFQKPNYTEIRQYCNHWRNFADIDDSWKSIKSILDWTSFNQERIVDVAGPGGWNDPDMLVIGNFGLSWNQQVTQMALWAIMAAPLFMSNDLRHISPQAKALLQDKDVIAINQDPLGKQGYQLRQGDNFEVWERPLSGLAWAVAMINRQEIGGPRSYTIAVASLGKGVACNPACFITQLLPVKRKLGFYEWTSRLRSHINPTGTVLLQLENTMQWSLKDLL
modifications: Synthetic Polypeptide sequence of Variant No. 485 of mature Human GLA
For B4, the “Relative Activity … at pH 3.7” value in series [1] is given as “+ (0.5 to 1.5 relative activity over Rd4BB (SEQ ID NO: 15))”. In addition, in series [2], the “Relative Activity of GLA Variants After No Challenge (NC)” value is reported as “+ (0.5 to 1.5 relative activity over Rd4BB (SEQ ID NO: 15))”. Further, in series [3], the “Relative Activity … at pH 9.65” value is reported as “+ (0.5 to 1.5 relative activity over Rd4BB (SEQ ID NO: 15))”.

B5: 487 (protein)
chain: LDNGLARTPTMGWLHWERFMCNLDCQEEPDSCISEKLFMEMAERMVSEGWKDAGYEYLCIDDCWMAPQRDSEGRLQADPQRFPHGIRQLANYVHSKGLKLGIYADVGNKTCAGFPGSFGYYDIDAQTFADWGVDLLKFDGCYCDSLENLADGYKHMSLALNRTGRSIVYSCEWPLYMWPFQKPNYTEIRQYCNHWRNFADIDDSWKSIKSILDWTSFNQERIVDVAGPGGWNDPDMLVIGNFGLSWNQQVTQMALWAIMAAPLFMSNDLRHISPQAKALLQDKDVIAINQDPLGKQGYQLRQGDNFEVWERPLSGLAWAVAMINRQEIGGPRSYTIAVASLGKGVACNPACFITQLLPVKRKLGFYEWTSRLRSHINPTGTVLLQLENGMQMSLKDLL
modifications: Synthetic Polypeptide sequence of Variant No. 487 of mature Human GLA
Regarding B5, the “Relative Activity … at pH 3.7” value in series [1] is “+ (0.5 to 1.5 relative activity over Rd4BB (SEQ ID NO: 15))”. Moreover, the “Relative Activity of GLA Variants After No Challenge (NC)” value in series [2] is recorded as “+ (0.5 to 1.5 relative activity over Rd4BB (SEQ ID NO: 15))”. Besides, in series [3], the “Relative Activity … at pH 9.65” value is listed as “+ (0.5 to 1.5 relative activity over Rd4BB (SEQ ID NO: 15))”.

B6: 486 (protein)
chain: LDNGLARTPTMGWLHWERFMCNLDCQEEPDSCISEKLFMEMAERMVSEGWKDAGYEYLCIDDCWMAPQRDSEGRLQADPQRFPHGIRQLANYVHSKGLKLGIYADVGNKTCAGFPGSFGYYDIDAQTFADWGVDLLKFDGCYCDSLENLADGYKHMSLALNRTGRSIVYSCEWPLYMWPFQKPNYTEIRQYCNHWRNFADIDDSWKSIKSILDWTSFNQERIVDVAGPGGWNDPDMLVIGNFGLSWNQQVTQMALWAIMAAPLFMSNDLRHISPQAKALLQDKDVIAINQDPLGKQGYQLRQGDNFEVWERPLSGLAWAVAMINRQEIGGPRSYTIAVASLGKGVACNPACFITQLLPVKRKLGFYEWTSRLRSHINPTGTVLLQLENTCQMSLKDLL
modifications: Synthetic Polypeptide sequence of Variant No. 486 of mature Human GLA
Turning to B6, the “Relative Activity … at pH 3.7” value in series [1] was “+ (0.5 to 1.5 relative activity over Rd4BB (SEQ ID NO: 15))”. The “Relative Activity of GLA Variants After No Challenge (NC)” value in series [2] is reported as “+ (0.5 to 1.5 relative activity over Rd4BB (SEQ ID NO: 15))”. Further, the “Relative Activity … at pH 9.65” value in series [3] is reported as “+ (0.5 to 1.5 relative activity over Rd4BB (SEQ ID NO: 15))”.

B7: 483 (protein)
chain: LDNGLARTPTMGWLHWERFMCNLDCQEEPDSCISEKLFMEMAERMVSEGWKDAGYEYLCIDDCWMAPQRDSEGRLQADPQRFPHGIRQLANYVHSKGLKLGIYADVGNKTCAGFPGSFGYYDIDAQTFADWGVDLLKFDGCYCDSLENLADGYKHMSLALNRTGRSIVYSCEWPLYMWPFQKPNYTEIRQYCNHWRNFADIDDSWKSIKSILDWTSFNQERIVDVAGPGGWNDPDMLVIGNFGLSWNQQVTQMALWAIMAAPLFMSNDLRHISPQAKALLQDKDVIAINQDPLGKQGYQLRQGDNFEVWERPLSGLAWAVAMINRQEIGGPRSYTIAVASLGKGVACNPACFITQLLPVKRKLGFYEWTSRLRSHINPTGTVLLQLENTMQCSLKDLL
modifications: Synthetic Polypeptide sequence of Variant No. 483 of mature Human GLA
Take B7: the “Relative Activity … at pH 3.7” value in series [1] is reported as “+ (0.5 to 1.5 relative activity over Rd4BB (SEQ ID NO: 15))”. The “Relative Activity of GLA Variants After No Challenge (NC)” value in series [2] is listed as “+ (0.5 to 1.5 relative activity over Rd4BB (SEQ ID NO: 15))”. Besides, in series [3], the “Relative Activity … at pH 9.65” value is “+ (0.5 to 1.5 relative activity over Rd4BB (SEQ ID NO: 15))”.

B8: 370 (protein)
chain: LDNGLARTPTMGWLHWERFMCNLDCQEEPDSCISEKLFMEMAEQMVSEGWKDAGYEYLCIDDCWMAPQRDSEGRLQADPQRFPHGIRQLANYVHSKGLKLGIYADVGNKTCAGFPGSFGYYDIDAQTFADWGVDLLKFDGCYCDSLENLADGYKHMSLALNRTGRSIVYSCEWPLYMWPFQKPNYTEIRQYCNHWRNFADIDDSWKSIKSILDWTSRNQERIVDVAGPGGWNDPDMLVIGNFGLSWDQQVTQMALWAIMAAPLFMSNDLRHISPQAKALLQDKDVIAINQDPLGKQGYQLRKGDNFEVWERPLSGDAWAVAIINRQEIGGPRSYTIPVASLGKGVACNPACFITQLLPVKRQLGFYNWTSRLKSHINPTGTVLLQLENTMQMSLKDLL
modifications: Synthetic Polypeptide sequence of Variant No. 370 of mature Human GLA
As for B8, the “Relative Activity … at pH 3.7” value in series [1] is on record as “++ (>1.5 to 2.5 relative activity over Rd4BB (SEQ ID NO: 15))”. The “Relative Activity of GLA Variants After No Challenge (NC)” value in series [2] is “+ (0.5 to 1.5 relative activity over Rd4BB (SEQ ID NO: 15))”. Moreover, in series [3], the “Relative Activity … at pH 9.65” value is on record as “+ (0.5 to 1.5 relative activity over Rd4BB (SEQ ID NO: 15))”.
